Reference: the domain aggregation screens of Martell et al. (2025)

Experiment: soluble fraction after stress (log2 fold change); higher = more stays soluble; pooled small domains, quantitative proteomics
Conditions: stress: 50 degC
Procedure, shortened: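 Pooled custom libraries of small protein domains were each held under stress at 50°C. The read-out, high-throughput quantitative proteomics, tracked how much of each protein stayed soluble. This is reported as a base-two log fold change used to indicate aggregation propensity. Higher values mean more protein remains in solution.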

Row | Sequence | soluble fraction (log2)
1 | HMGRYATVPDVVGSTPEVARELIRSEGLRYVLSEETVYSDSDTGTVGRTDPESGTRMSADDEVVVYLS | 0.0355
2 | HMTASVTDAMFELIDELPKLGKTSFRQLTADLVDRLQVVVTFLAVLELYKQGHVELDQSERFGDITVVWTG | -0.0255
3 | HMLRISEEVWALVEKTLREDWSPEQVSGKLKASGISVSHERIYQHIYADKRVGGTLWTHLRR | -2.3
4 | HMQKNFYQILGVDSKASPATINAAYERAKSRVIQSGLEDPDTMALLRDAWETLADPGDRAAYDESLAT | 0.0751
5 | HMASQFSLIVTQADAGMRLDSLLAVSGAYPSRSAAVKQIEAGKVLVNGLARSKRSIVAPGDTIVYEEIP | -0.584
6 | HMNYVFVLNEHGVRQTSYVVGLHADTLEKTEKLAKQTYPTSTIISGDSEMQSQFISGKAYVNGEFVDP | -0.471
7 | HMSSWEEQLKIWAKNELASGNTDILARATVSFEQILIEAALTHTGGRKKTAAELLGWGRNTLTRKIKELHI | -0.29
8 | HMDQPVIDVREFGARGDGKQDDAPAIQAAVRLAEQLGGGRVVVPATREFYLLGSTIRIRGHHVTLTGPGAR | 0.0155
9 | HMQIIGEQNQKDFIALFGAILRMRNLLLSFDEFKGNELISERDLQDYLGRYQDLRDEWRNKRRER | 0.0518
10 | HMKSNIGENIRQLREKREMSVERVARMLEVKPATVIGWESGRELPEPAELGLLAKLFDVTVEELN | 0.106
11 | HMVPVSIYAYNKIKTAILNNELMPGEKLVEASLAETLNMSRTPIREALRQLEQEGFVTYYPQKGSIVSH | -0.657
12 | HMRFMRVSQSKSKNSTSLYIIESVYTKDNKHTTRIVKKLGTVEELSKEHEDPLAWAKEVAKQMTEEAEQN | -0.347
13 | HMALKRVAPQGEDKLSAQLDGVEFDKLIPWLGMLEHDHRIAIVNLSIDRANATGLVNARVIL | -0.0239
14 | HMNKNIKIPNISNLSREDAESVLKESGISVSTEIKEVESDTIEKGKVVKTEPSIGSTVKQGRTITIYISSG | 0.0574
15 | HMSLTTKSVEETLGITRQTLHNWIKEGLLPAPKKDFRNWYIWSDEDLENLRNIIEQKTLINNKKQAV | -0.133
16 | HMLAIELDDKPGSLLRALEIFAKRNLNIEYMYAFTEKRGDKAVMIFKFSDIETAKKSLLEEGFN | -1.64
17 | HMSAIEIDAEKILNYLTDRGGKMPYGDTTAPEVIKDKFNISKAAFKRALGFLLRSNKIEQIDGWTYI | -0.317
18 | HMTLALKQGSTGSTVKQVQQKLKNWGYYSGAVDGIFGSGTRKAVVLFQKRNKLTADGIVGSKTLEALGIYV | -1.05
19 | HMLKLEPYTINEINSLQELYDLGNVRALETLISIYKDKNQVYDTRFYVLDILSKYDNPLIQEALEESITN | -1.78

Row | Sequence | soluble fraction (log2)
20 | HMQDIDIVDLKRISELIYQKYNYDFRNYAMSSFKRRVQRIIELKKLTVDGLIKRLNDTPSFINEFLDELTV | -0.139
21 | HMVQIFIPVVHDDHWFLIVFSREEDTFYVLDSLPSLSRISTINGIISTLKEHLQQASVGPQYSVKVLPVK | -0.172
22 | HMIEEIETQFLFDFGLIGHPNSAKIREKLSEALGIGYVNGKQLQKRLMMFGITKQQVVDVLTD | -4.94
23 | HMENRREYQKAIDYLSDQIRAGTLTVGSRLPTERAIAEALGISRNSTREALRTMENMGMIESKQGSGHYLT | -0.00154
24 | HMRRDEDLAHGRELLEKELRKQGLEVSENLKQDKLLEGAKRLGFLEAEDLVVAVGSGKVSAGMAVGRIIG | 0.16
25 | HMVEKRLFPQISDAGKRLDLFLAGALAISRTMVVKIIKDGGVLVNGKAAKASYRLAGDEELLVSYEEP | 0.395
26 | HMPISQGATVKHNANMRKGASTKYKVTGVLQEGEEVKILSQSNGWYKIQNSDNEKGWTYNTHINASDK | 0.0951
27 | HMLPDAESFSYEVPYTKGDGGTYNYEGKIKAQNADAARDEIIRQAQVYFQMNPQFTPDYPSTTITSLD | 0.171
28 | HMYVKIAADAAMPYTIKRVVTDYSSAALDAAYDGSLPKWLTISSSTKDAGSGLYRHEIIYTVTAHPE | -0.68
29 | HMQSREISYSEFVTAVEAGDVRNVTLDGEQVRFRRADGSDYVTIRPEDAEVTKLLMANDIPVRAEP | 0.169
30 | HMSGTYIATVEAGSLDIYKSMTSNETIGKASRGDVFQILEDMGSGYARVSYNDVEGYMSIKTGDASIEEL | -0.203
31 | HMSNIAQRLVLENALAKLNQEQQTIIDLRIIKGYSVAETARLLGKTESAVRTAQYRALKELAGILEED | -0.86
32 | HMTIKLFPNPSTDFIRVSELSAKENYKIYTILGSEIKRGSVSNNETIDIRNLNSGVYLLKFDNGTTKKIVK | -0.886
33 | HMDSAVLQKHLVKLIELHAPIKARNLAKILADEFGKHVDRSAVNSALYSLKAERKVEVNSSYEWSLD | -2.11
34 | HMKIPGIGDVYAILARVYSGPQFTWIEAGFPEDDTKAYSYLHTAIRKGSAIAILQAMRTSGALTPTIEKE | -0.444
35 | HMGADPTTWPEIDAFVGRVAVTATGLFPSGQVEIDGRRFEARLAFGVAEPGARVVVRRRTDFGLLVEKETR | -0.389
36 | HMSPEWTPAEQDAIDKASEGEYGEALQRVLSGDYEPMDIPDALWGVQQVADKDTYSSIQKKIADIGN | 0.42
37 | HMAVLEGPAGKLGIVRFEANRSFTGMGHERFSSADQAFGTKPAAVVASRLFATGQVAGVHVYGNIITVELA | 0.528
38 | HMEQVSDPALLERYAKEVVAASPKAVADYQAGNAKAFQALVGQMMKRTKGKGDPALIREILQKL | 0.0957
